These results are taken from a protein production outcome set (Wang et al. 2014).

The data set is described as follows: label from the status in PepcDB records.
Consider “MSLAKPIEAHTVSPVNPNAQQTTKTVMNWLAHLPNRTENRVLSGAFGGYSHDTFSMAEADRIRSATGQSPAIYGCDYARGWLETANIEDSIDVSCNGDLMSYWKNGGIPQISLHLANPAFQSGHFKTPITNDQYKKILDSSTVEGKRLNAMLSKIADGLQELENQGVPVLFRPLHEMNGEWFWWGLTSYNQKDNERISLYKQLYKKIYHYMTDTRGLDHLIWVYSPDANRDFKTDFYPGASYVDIVGLDAYFQDAYSINGYDQLTALNKPFAFTEVGPQTANGSFDYSLFINAIKQKYPKTIYFLAWNDEWSAAVNKGASALYHDSWTLNKGEIWNGDSLTPIVEEGHHHHHH”, for which the protein production entry is given as “not failed”.

In the case of “MDENSLIYGLELQARALTPQYGESNDVCFFIATNSLKPTNQVHLIQYEEEQGSVQSKVFEHALGEVWKLNSCPRNPRLLASVYNVQKGAQVLTKAALFTLPENLNPDPEQLKSEYLPWEQVEVLDTEALGERVKTIEFHPNQDTLACVVDNKVAVMQRAESSTRVVAEVPASGSSSGSAKHTQHFTSGKWSHHHQGHQFLTLQDGNLSAYDVRDTQHCAWSINDAHGQMVRDLDCNPNKQCHLVTGGDDGYLRIWDCRMPKAPVFERSDHSHWVWCVRFNTFHDQLILSSSSDCKVLLTCAGSVSSETQVQAGLDESNFSGADAEERHKLLPDGLLQTFDQHEDSVYCAEWSNVDPWIFASLSYDGRVIISKVPKQYKYQIIF”, the protein production result is “failed”.

As to “MCSSDSLQLHNVFVYGSFQDPDVINVMLDRTPEIVSATLPGFQRFRLKGRLYPCIVPSEKGEVHGKVLMGVTSDELENLDAVEGNEYERVTVGIVREDNSEKMAVKTYMWINKADPDMFGEWNFEEWKRLHKKKFIETFKKIMECKKKPQGQGNDDISHVLREDQ”, the protein production entry is recorded as “not failed”.

As to “MMRFVIGFLLSILASISLVSPANAAVIDHDKVVGFEEVTPTTITQKVAKRFQPYLTVSTGCVPFPAVDADGNTSGGLAPTGPHNGGCSSHIGQVYSRSTWHNGVWAIMYAWYFPKDSPSPGLGHRHDWEGIVVWVDNPANPSPQLLSIAYSQHGNFYNVAPTDRNTREQRPLIRYSHAWPLNHSLWIHDQVGGTQPLIGWDDLTPAARHALNTTDFGAANVPFNDHNFINNLRKAWYRLEHHHHHH”, the protein production entry is given as “failed”.

Consider “VEGPCEAKIECSDNGDGTCSVSYLPTKPGEYFVNILFEEVHIPGSPFKADIEMPFDPSKVVASGPGLEHGKVGEAGLLSVNCSEAGPGALGLEAVSDSGTKAEVSIQNNKDGTYAVTYVPLTAGMYTLTMKYGGELVPHFPARVKVEPAVDTSRIKVFGPGIEGKDVFREATTDFTVDSRPLTQVGGDHIKAHIANPSGASTECFVTDNADGTYQVEYTPFEKGLHVVEVTYDDVPIPNSPFKVAVTEGCQPSRVQAQGPGLKEAFTNKPNVFTVVTRGAGIGGLGITVEGPSESKINCRDNKDGSCSAEYIPFAPGDYDVNITYGGAHIPGSPFR”, for which the protein production entry is listed as “failed”.

On to “MDQTAEEKMVRERIRKKVNEVSSASQSLLSPVQDHINFTLQKAYFKCAYECFDRTRTHAEISRCAESCSVPITNAQNYFDNEMSVFQERLNRSLVVCQDKFEVAKQQKTRSEAVNDLEHCVNQTVDEAVKTLPNLVSRMKKALSITD”, for which the protein production result was “failed”.

Consider “PGRPTMMISTTAMNTALLQWHPPKELPGELLGYRLQYCRADEARPNTIDFGKDDQHFTVTGLHKGTTYIFRLAAKNRAGLGEEFEKEIRTPEDL”, for which the protein production result is on record as “not failed”.

For the sequence “MPSSTFSGTVSTPKLSVAVDMGNPFLNLTVDAFLKIGAVGVTKSLAEDTYKAIDKGSLSKSTLEHALKKLCKEGVYWGAAGGVYIGTEYGIERIRGSRDWKNAMLAGAATGAVLSAVGKKGKDTIVIDAILGGALATASQFVNNHYFY”, the protein production result was “failed”.

As to “MTRMKMFKLWMVVMLLGLLPIVSEAQEEINNAINVQLEYLKKYPKDKEALRKVSFLYLNKADYDQAIFYGRQLFELGYNERDYNGAVIYSHICLGQAHMMKGNVKEAYSHLGQARLIGESNKNDSALCSVYNGLGLYASNVQKDYYRSLTYFFKGVEAARRCHYDRLYSILLSNIAGIYYLKNDSTGLKYALECYELGHERKDPYLIYSGSTNTAYMYYLKSDYNTALKYIQEAEFTMVQNDFYDQSNVYNLYGYILHKLNKDDEALVFFRKALDLKEQGNISSVMNSYLGYAEILMEHHQYDRAVRMLKAGIELSYQQANAIYRSDLLKALSRCYEEDGMLVEALKYHKLYQLETDSLYNAEKERAVGEIRAKYDMERQENEIKQNRLELLEKENKMQLLIAGFICIFIAASLLYYLYYRKNKLYLTIVKQNQDAIRREQQLQNKIDEQFAEIGRQSALLQEYLTDSTKTSLPQPEKYASSSLTDEKKQDLFLRLETLLWEEKVFTDNLLTKEKVAEMLGTNRTYLSQIINEQTKQTFTQFVNGFRTKEAVRLLSDPDNQTPLKAISAELGFNSMTTFYSQFQAATGMTPAQYRNKVQELHKNR”, the protein production entry was “failed”.

Regarding “MGHHHHHHSHMADVEDGEETCALASHSGSSGSKSGGDKMFSLKKWNAVAMWSWDVECDTCAICRVQVMDACLRCQAENKQEDCVVVWGECNHSFHNCCMSLWVKQNNRCPLCQQDWVVQRIGK”, the protein production result was “failed”.

On to “MKTNEVLETIKARRSVRAYDRKQIPADDLNAILEAGAYAPSGMHYETWHFTAVCNTVKLEELNERIKGAFAKSDDKHLRERGHSETYCCYYHAPTLVIVSNEPKQWWAGMDCACAIENMFLAATSLGIASCWINQLGTTCDDPEVRAYLTSLGVPENHKVYGCVALGYKAEGALLKEKTVKAGTITIVE”, for which the protein production result is on record as “not failed”.

Regarding “MAINLNDYKRVAQNLKVNKKNMREFLFDFRVNGKRYRKVETLIERTGWNKKDYEREAQLLLIDYRKKVEANTGNLQITSNTRLNELWELYFQTLDKSTSWTFTKESFYNRYLKEPLGKKKLDSIQEHHIMAIIRHLQAEGMATRTVNTTLEILRPLFDFAIKNKALRDNPTRFIVLKKDNTKKIVINGAEMFKRIFEGINDYYSSQPFYRALFLFGFTGRRKGEILKLKWENIDLDNNYYWIEDTKNNEKQKYELPHFIKEALLQIQDTHTGLVFKSPVTGRMLENTDGQMNKLKKHLNMPELTLHYMRNVLVSALAERGTEAITLSGMLGHRDATTINKYLSLSYHNSSKKGNATMGQIIDAEVVE”, the protein production entry is listed as “failed”.

As for “MPIIKTLTKATKLEKEKFTIPKSVQDAIPIQRIWPDGIFQVGSRFSKTFSFTDINYSIASKDDKTAMFLDYSELLNALDSGASAKITIHNRRIDKAQFEKSLLLPMREDGLDHFRREYNEMLLSKVTGTNNSVVQDRYITITVAKRNIDEARTYFSRVGTDLINHLSQLSSVGRELDAAARLQLFRDFFKGSEPAAFAFDLREHMKKGHSFKDWLCPDSMEFQKDHFRIDERWGRVLYLQDYATYIKDSMIAELCDMDRSLMLAIDVLPVPTDEAVREIQNKLLGVETNAANWQRKQNAANNFSAVLPYDMEQQRKETKEMLDDLTNRDQRMMFGLVTLVHLADTKEQLDSDTETILTVARKHLCQMSTLRWQQKDGLDTVLPYGLRKIHALRTLTTESTAVLIPFRAQEILQGGGIYYGQNAVSKNMIVADRRKLLNGNSFRLGVSGSGKSFSAKEEIVSIALSTDDDILILDPESEFGFLTEALGGEVIRVSASSDTHINALDMDKAYGDERNPLIEKSEFILSLFEQLVGAGGVSAKEKSILDRCTYDVYREYMANNYQGEVPTLKDLYQSLLKQPEPEARGLALSSELFITGSLNTFAQPTNVDTKARIIAYDIRELGEQLMPIGMLVTLDAIFNRVIQNWKKGKTTWVFADEFYLLFRYQYSADFFYKLWKRIRKYNGLVTGLTQNVEELLRSDTARLMLANSEFLILLNQSPTDRDELAGLLHISDTQLGYITNVSAGCGLIRCAGNIVPFENSFPRNTRLYQLMTTKPDEALRGVLEHHHHHH”, the protein production entry is “failed”.

On to “DPDEDSDNSAIYVQGLNDSVTLDDLADFFKQCGVVKMNKRTGQPMIHIYLDKETGKPKGDATVSYEDPPTAKAAVEWFDGKDFQGSKLKVSLARKKPPMN”, for which the protein production entry is “not failed”.

As to “MAFLIISLIIMLIGLLRLKINKRSIIGGIFLASGLILSLASLFFELLNLIYLYLPSGDFATLIIAYGILPLIFLLVCGYFIFNSKTMRTKEGKSATAKLSALFGLNLLIAFPALFMLFTFSTKTIPQIIWYILLYILLIDIILCFLFAAYILYSWMSQMIPLQKKIDYIIILGSGVRSEEVPPLLKSRLDKGIEYYQKNPTAKFVVSGGQGADEPVSEAFAMRKYLHSQNIPNHQILFEDKFTTTYENMLFSKRIINEDWSDKEMPPSIIFSTNNYHVLRGSLYAQRVKLKAQGVGGTHSTLFLTYGLNS”, the protein production entry is “failed”.

Take “MLSEQKEIAMQVSGMTCAACAARIEKGLKRMPGVTDANVNLATETVNVIYDPAETGTAAIQEKIEKLGYHVVTEKAEFDIEGMTCAACANRIEKRLNKIEGVANAPVNFALETVTVEYNPKEASVSDLKEAVDKLGYKLKLKGEQDS”: the protein production result is “not failed”.

With “RSSEWLEKWQFVNGRFREHLQTISSEDVSFEGNLYRILQHLVPENSSLFVGNSMPIRDVDTFFEKQDRPFRIYSNRGANGIDGVVSSAMGVCEGTKAPVTLVIGDLSFYHDLNGLLAAKKLGIPLTVILVNNDGGGIFSFLPQASEKTHFEDLFGTPTGLDFKHAAALYGGTYSCPASWDEFKTAYAPQADKPGLHLIEIKTDRQSRVQLHRDMLNEAVREVKKQWEL”, the protein production result is recorded as “failed”.

For the sequence “MKLICYILLILLIPAIPVGAQTLSGGQVQVSNQSILISDNGQVMIGMDITLPAAMELSSNCVATLTPVLKTQDNSYNRILPAIWVYGRIRSIVQQRERSIPSDAYTILRRKNGTEQTVNYSARIPYEKWMNGAELELQAAIRGCADCQKEENSAFITRANLERYVVKPVVAFVSPAVEAVKNRAEEGRAYLDFPVNQMNIYPDYRRNPSELAAIKHTVDVVKNDVNTTITEIAIVGYASPEGRYAANARLAQGRAEALKSYVMNEYGFKADLFKVNSVPEDWAGLRAYVAKNDLPLKEEILSIIDKNESDFDVKEERIKALDGGKVYAALLQDCYPALRHSDYTVRYVVRGFDVEEAKQIIKLRPQQLSLQEMFLVAQTYEKGSDEFNEVFDVAVRMFPDDPTANINAAAIELQRGDLQQAVRYLDKADAQASATLNNRGVLKLLQGDLDSAENYFKQAQAKDSVEAGANLEEVTNKRKDEAIFVK”, the protein production result was “failed”.

With “RMSHHYATIEVSQQLRQLLGDQLVILLRETPDGQALERSQNDFRRVLEQGRANTVDSAEQAALDGVRDAYLQLQAHTPALLEAPMADNDGFSEAFNGLRLRLQDLQQLALAGISEAE”, the protein production result is “not failed”.

For the sequence “GNLSFLATSDGASLAYRLDGAAEKPLLALSNSIGTTLHMWDAQLPALTRHFRVLRYDARGHGASSVPPGPYTLARLGEDVLELLDALEVRRAHFLGLSLGGIVGQWLALHAPQRIERLVLANTSAWLGPAAQWDERIAAVLQAEDMSETAAGFLGNWFPPALLERAEPVVERFRAMLMATNRHGLAGSFAAVRDTDLRAQLARIERPTLVIAGAYDTVTAASHGELIAASIAGARLVTLPAVHLSNVEFPQAFEGAVLSFLGA”, the protein production entry is recorded as “not failed”.

In the case of “MSSLMMHCLIHVQELMNVKGIVVDELTGRSGPDHAKSLDPRTSLLRLITRPLGRVPPRESLDHFTRPPGRVSSPLPPSPSLDYILDVELQSLLHSALNQTLEHKEEKKTPAIHSTSHSTTLVEYSS”, the protein production entry is recorded as “failed”.

On to “EKTVRVVINFKKTQKTIVRVSPHASLQELAPIICSKCEFDPLHTLLLKDYQSQEPLDLTKSLNDLGLRELYAMDVNRE”, for which the protein production entry is on record as “not failed”.

For the sequence “MQYRIRRENEAPEAKNAGETLWERDMMREVLLSAYRDRRRERMWKNIWRAVSTLILVALIAGIFRKDEAALQLAGNTPHTAVVNLYGEIGNGVEDQVKKLKDGMEAAYKNPQAKAIVIRANSPGGSPVVSNTAFEEIRRLKAQHPGIPVYLVAEDMCASGCYYIAAAADKIYADPSSIVGSIGVIGSSFDATGLMEKIGVKRRVKIAGSNKGMGDPFSPETPEQSKIWEEMLTGIHGEFIKAVKTGRGGRLKFRQYPDVFSGRVYTGADALKVGLVDGLGNIYSVARDVVKAPDVVDYTPKDDFGRILGRRFGAELKASVREALQAVR”, the protein production entry is on record as “failed”.
